Data on four substances can be found in patent publication US20060263361A1.

The target in assay [1] is recombinant KIR2DL1 protein (entire extracellular domain, produced in E. coli, immobilized) (human) (UniProt P43626). Description: Biacore, KIR2DL1 chip; first Ab EB6 vs competitor (second Ab) 1-7F9. For orientation: SPR reads the build-up and loss of mass on a sensor chip optically.
For assay [2] the target is unchanged. Description: Biacore, KIR2DL1 chip; first Ab EB6 vs competitor (second Ab) DF200.
Assay [3] shares this target. The assay is described as follows: Biacore, KIR2DL1 chip; first Ab EB6 vs competitor (second Ab) 1-4F1.
The target is the same in assay [4]. Description: Biacore, KIR2DL1 chip; first Ab EB6 vs competitor (second Ab) EB6 (self).
Assay [5] has the same target. The assay is described as follows: Biacore, KIR2DL1 chip; first Ab EB6 vs competitor (second Ab) 1-6F1.
The target is the same in assay [6]. The assay is described as follows: Biacore, KIR2DL1 chip; first Ab EB6 vs competitor (second Ab) Pan2D.
The target is the same in assay [7]. Description: Biacore, KIR2DL1 chip; second Ab injected alone.
Assay [8] concerns the target recombinant KIR2DL3 protein (entire extracellular domain, produced in E. coli, immobilized) (human) (UniProt P43628). The assay is described as follows: Biacore, KIR2DL3 chip; first Ab gl183 vs competitor (second Ab) 1-4F1.
For assay [9] the target is unchanged. The assay is described as follows: Biacore, KIR2DL3 chip; second Ab injected alone.
For assay [10] the target is unchanged. Description: Biacore, KIR2DL3 chip; first Ab gl183 vs competitor (second Ab) DF200.
For assay [11] the target is unchanged. Description: Biacore, KIR2DL3 chip; first Ab gl183 vs competitor (second Ab) 1-6F1.
For assay [12] the target is unchanged. Description: Biacore, KIR2DL3 chip; first Ab gl183 vs competitor (second Ab) 1-7F9.
The target is the same in assay [13]. Description: Biacore, KIR2DL3 chip; first Ab gl183 vs competitor (second Ab) Pan2D.
Assay [14] has as its target recombinant KIR2DL1 protein (entire extracellular domain, produced in E. coli, immobilized) (human) (UniProt P43626). The assay is described as follows: Biacore, KIR2DL1 chip; first Ab DF200 vs competitor (second Ab) EB6.
For assay [15], the target named is recombinant KIR2DL3 protein (entire extracellular domain, produced in E. coli, immobilized) (human) (UniProt P43628). Description: Biacore, KIR2DL3 chip; first Ab DF200 vs competitor (second Ab) Pan2D.
For assay [16] the target is unchanged. Description: Biacore, KIR2DL3 chip; first Ab DF200 vs competitor (second Ab) 1-4F1.
The target is the same in assay [17]. Description: Biacore, KIR2DL3 chip; first Ab DF200 vs competitor (second Ab) 1-7F9.
Assay [18] shares this target. The assay is described as follows: Biacore, KIR2DL3 chip; first Ab DF200 vs competitor (second Ab) gl183.
The target of assay [19] is recombinant KIR2DL1 protein (entire extracellular domain, produced in E. coli, immobilized) (human) (UniProt P43626). Description: Biacore, KIR2DL1 chip; first Ab DF200 vs competitor (second Ab) 1-6F1.
The target in assay [20] is immobilized KIR 2DS1 (UniProt Q14954). Description: Biacore, KIR2DS1 chip; first Ab DF200 vs competitor (second Ab) 1-7F9.
Assay [21] deals with recombinant KIR2DL3 protein (entire extracellular domain, produced in E. coli, immobilized) (human) (UniProt P43628). The assay is described as follows: Biacore, KIR2DL3 chip; first Ab DF200 vs competitor (second Ab) 1-6F5.
Assay [22] concerns the target immobilized KIR 2DS1 (UniProt Q14954). The assay is described as follows: Biacore, KIR2DS1 chip; second Ab injected alone.
Assay [23] addresses recombinant KIR2DL1 protein (entire extracellular domain, produced in E. coli, immobilized) (human) (UniProt P43626). The assay is described as follows: Biacore, KIR2DL1 chip; first Ab DF200 vs competitor (second Ab) 1-4F1.
The target of assay [24] is recombinant KIR2DL3 protein (entire extracellular domain, produced in E. coli, immobilized) (human) (UniProt P43628). Description: Biacore, KIR2DL3 chip; first Ab DF200 vs competitor (second Ab) 1-6F1.
Assay [25] deals with immobilized KIR 2DS1 (UniProt Q14954). The assay is described as follows: Biacore, KIR2DS1 chip; first Ab DF200 vs competitor (second Ab) 1-4F1.
The target is the same in assay [26]. The assay is described as follows: Biacore, KIR2DS1 chip; first Ab DF200 vs competitor (second Ab) Pan2D.
Assay [27] concerns the target recombinant KIR2DL1 protein (entire extracellular domain, produced in E. coli, immobilized) (human) (UniProt P43626). The assay is described as follows: Biacore, KIR2DL1 chip; first Ab DF200 vs competitor (second Ab) Pan2D.
For assay [28] the target is unchanged. The assay is described as follows: Biacore, KIR2DL1 chip; first Ab DF200 vs competitor (second Ab) 1-7F9.
Assay [29] has the same target. Description: Biacore, KIR2DL1 chip; first Ab DF200 vs competitor (second Ab) 1-6F5.
The target in assay [30] is immobilized KIR 2DS1 (UniProt Q14954). The assay is described as follows: Biacore, KIR2DS1 chip; first Ab Pan2D vs competitor (second Ab) 1-4F1.
Assay [31] addresses recombinant KIR2DL3 protein (entire extracellular domain, produced in E. coli, immobilized) (human) (UniProt P43628). The assay is described as follows: Biacore, KIR2DL3 chip; first Ab Pan2D vs competitor (second Ab) 1-6F5.
The target is the same in assay [32]. Description: Biacore, KIR2DL3 chip; first Ab Pan2D vs competitor (second Ab) 1-6F1.
The target is the same in assay [33]. Description: Biacore, KIR2DL3 chip; first Ab Pan2D vs competitor (second Ab) gl183.
The target is the same in assay [34]. Description: Biacore, KIR2DL3 chip; first Ab Pan2D vs competitor (second Ab) DF200.
Assay [35] addresses recombinant KIR2DL1 protein (entire extracellular domain, produced in E. coli, immobilized) (human) (UniProt P43626). The assay is described as follows: Biacore, KIR2DL1 chip; first Ab Pan2D vs competitor (second Ab) DF200.
Assay [36] addresses immobilized KIR 2DS1 (UniProt Q14954). The assay is described as follows: Biacore, KIR2DS1 chip; first Ab Pan2D vs competitor (second Ab) 1-7F9.
Assay [37] concerns the target recombinant KIR2DL1 protein (entire extracellular domain, produced in E. coli, immobilized) (human) (UniProt P43626). The assay is described as follows: Biacore, KIR2DL1 chip; first Ab Pan2D vs competitor (second Ab) 1-6F1.
The target of assay [38] is recombinant KIR2DL3 protein (entire extracellular domain, produced in E. coli, immobilized) (human) (UniProt P43628). The assay is described as follows: Biacore, KIR2DL3 chip; first Ab Pan2D vs competitor (second Ab) 1-4F1.
Assay [39] addresses recombinant KIR2DL1 protein (entire extracellular domain, produced in E. coli, immobilized) (human) (UniProt P43626). Description: Biacore, KIR2DL1 chip; first Ab Pan2D vs competitor (second Ab) 1-7F9.
In assay [40] the target is recombinant KIR2DL3 protein (entire extracellular domain, produced in E. coli, immobilized) (human) (UniProt P43628). The assay is described as follows: Biacore, KIR2DL3 chip; first Ab Pan2D vs competitor (second Ab) 1-7F9.
The target of assay [41] is recombinant KIR2DL1 protein (entire extracellular domain, produced in E. coli, immobilized) (human) (UniProt P43626). Description: Biacore, KIR2DL1 chip; first Ab Pan2D vs competitor (second Ab) EB6.
Assay [42] has the same target. Description: Biacore, KIR2DL1 chip; first Ab Pan2D vs competitor (second Ab) 1-6F5.
The target is the same in assay [43]. Description: Biacore, KIR2DL1 chip; first Ab Pan2D vs competitor (second Ab) 1-4F1.
Assay [44] concerns the target immobilized KIR 2DS1 (UniProt Q14954). The assay is described as follows: Biacore, KIR2DS1 chip; first Ab Pan2D vs competitor (second Ab) DF200.

Values joined by “and” are separate entries in the source; they are usually repeats but may differ in a detail not shown here. Equal entries are not always repeated.

Sequence of immobilized KIR 2DS1 (Q14954 22-245 limits assumed): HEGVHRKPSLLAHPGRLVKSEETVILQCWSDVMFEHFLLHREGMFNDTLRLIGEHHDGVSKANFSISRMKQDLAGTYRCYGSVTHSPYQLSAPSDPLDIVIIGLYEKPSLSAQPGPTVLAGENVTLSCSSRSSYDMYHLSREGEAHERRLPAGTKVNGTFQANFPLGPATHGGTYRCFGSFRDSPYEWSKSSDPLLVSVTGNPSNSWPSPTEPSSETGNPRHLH
Sequence of recombinant KIR2DL1 protein (entire extracellular domain, produced in E. coli, immobilized) (human) (P43626 22-245): as the sequence (Q14954 22-245 limits assumed) above, with K70T, L90V, P114L, T154P, N163D, R182H, E216K counted along it
Sequence of recombinant KIR2DL3 protein (entire extracellular domain, produced in E. coli, immobilized) (human) (P43628 22-245): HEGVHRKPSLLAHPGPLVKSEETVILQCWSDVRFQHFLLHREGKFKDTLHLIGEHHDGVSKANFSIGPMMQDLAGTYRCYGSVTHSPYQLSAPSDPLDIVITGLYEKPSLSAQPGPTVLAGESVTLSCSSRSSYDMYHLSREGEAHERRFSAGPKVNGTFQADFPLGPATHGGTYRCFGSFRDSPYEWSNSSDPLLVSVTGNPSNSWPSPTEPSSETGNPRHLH

As for EB6 (IgG1 anti KIR2DL1) (antibody), the percent inhibition of second antibody binding in assay [1] is 65%; in assay [2], 60%; in assay [3], 48%; in assay [4], 57%; in assay [5], 23%; in [6] it was 40%. Moreover, the RU, second antibody alone in [7] was 460 RU and 260 RU.

As for GL183 (IgG1 anti KIR2DL3) (antibody), the percent inhibition of second antibody binding in [8] came out at 75%; in assay [10] it was 8%; in assay [11], 18%; in assay [12], 76%; in assay [13] it was 40%. In assay [9], the RU, second antibody alone was 1240 RU and 800 RU and 620 RU.

For the substance “monoclonal antibody DF200 produced by hybridoma DF200”, the percent inhibition of second antibody binding amounted to 90% in assay [14]; 75% in assay [15]; 75% in [16]; 62% in assay [17]; 20% in assay [18]; 15% in assay [19]. Further, the percent inhibition of second antibody binding with immobilized KIR 2DS1 [20] turned out to be 15%; in assay [21], 4%; in assay [23], 92%; in [24], 16%; with immobilized KIR 2DS1 [25], 87%; in the assay with immobilized KIR 2DS1 [26], 70%. Moreover, the values for the percent inhibition of second antibody binding in [27], in [28] and in assay [29] were 80%, 27% and 15%, respectively. In addition, the RU, second antibody alone is 900 RU with immobilized KIR 2DS1 [22]; 600 RU and 350 RU in assay [7].

Consider monoclonal antibody NKVSF1, for which the percent inhibition of second antibody binding with immobilized KIR 2DS1 [30] turned out to be 100%; in assay [31] it was 18%; in assay [32] it was 8%; in assay [33] it was 85%; in assay [34] it was 95%; in [35], 90%. Besides, the percent inhibition of second antibody binding was 45% with immobilized KIR 2DS1 [36]; 12% in assay [37]; 68% in assay [38]; 2% in assay [39]; 15% in assay [40]; 90% in assay [41]. For the same substance, the percent inhibition of second antibody binding in [42] amounted to 13%; in [43], 95%; with immobilized KIR 2DS1 [44], 100%. Further, the RU, second antibody alone was 2400 RU and 870 RU and 990 RU in assay [9]; 1350 RU with immobilized KIR 2DS1 [22]; 545 RU and 475 RU in [7].
